Experimental data taken from US20140107315A1.

Key:
[1] = target: human immunoglobulin G drug separated from human plasma (Gammagard, Baxter) (human); experiment: SPR (Biacore 3000), human IgG immobilized on CM5 chip, ligand as analyte, 25 C, pH 7.4, 1:1 model
[2] = target: human immunoglobulin G drug separated from human plasma (Gammagard, Baxter) (human); experiment: SPR (Biacore) as in Example 3, human IgG immobilized on chip, 1:1 model
[3] = target: human IgG (Gamma globulin, Nichiyaku) (human); experiment: affinity chromatography, ligand immobilized on HiTrap NHS-activated HP (6.5 mg/mL-gel), 1 mg/mL human IgG at 1.9 mL/min, 5% breakthrough

## C-K04R/K07D/G29A/K35R/K42R/K49R/K50H/K58G.1d (designed binder)
[1]
  Ka: 1.3e+07 M⁻¹

## C-K04R/K07E/G29A/K35R/K42R/K49R/K50H/K58G.1d (designed binder)
[1]
  Ka: 2.7e+07 M⁻¹

## C-K04R/K07E/G29A/K35R/K42R/K49R/K50R/K58G.1d (designed binder)
[1]
  Ka: 1.1e+07 M⁻¹

## C-K04R/K07R/G29A/K35R/K42R/K49Q/K50R/K58G.1d (designed binder)
[1]
  Ka: 3.3e+07 M⁻¹

## C-K04R/K07R/G29A/K35R/K42R/K49R/K50R/K58G.1d (from pGEX-2T, Example 2) (designed binder)
[1]
  Ka: 4.8e+07 M⁻¹

## C-K04R/K07R/G29A/K35R/K42R/K49R/K50R/K58G.1d with Ser-Lys added at the C terminal (Brevibacillus, Example 4) (designed binder)
[2]
  Ka: 2.2e+07 M⁻¹
[3]
  5% antibody dBC: 25.7 mg/mL-gel
